Reference: US8492147B2, “Method of inducing the differentiation of embryonic stem cells into nerve by serum-free suspension culture” (Riken, priority 2004, dated 2013)

Key:
[1] = system: Mouse ES cells (EB5 cells); assay: SFEB culture with retinoic acid, Bf1+ cells and RT-PCR of rostral/caudal markers; assay type: cell-based; conditions: RA 0.2 μM after 3-5 days of the culture
Protocol: Specifically, As ES cells, those cultured for maintenance by conventional culture method without feeder cells supplemented with 1% fetal calf serum, 10% KSR (Knockout Serum Replacement), and LIF were used for SFEB method (see, Neuron, Vol. 28: 31-40 (2000)). Next, after ES cell colonies were subjected to trypsin/EDTA treatment to make single cells, 10 ml of the cells (6×10^4 cells/ml) were seeded on cell non-adhesive culture plastic plate (diameter: 10 cm), and incubated at 37° C., 5% CO2 for five days. As medium, differentiation medium composed of 500 ml of GMEM, 5 ml of 100×NEAA, 5 ml of 100×pyruvate, and 0.5 ml of 1×10^−1 M 2-mercaptoethanol, and 5% KSR (Knockout Serum Replacement). […]
Mouse ES cells (EB5 cells) were subjected to serum-free floating culture by the SFEB method in the same manner as Example 1 for 5 days, after which they were dispersed by trypsin/EDTA treatment, seeded to a cell culture slide coated with poly-D lysine/laminin, and cultured in a differentiation medium (as described above) for 2 days, and then in a GMEM+N2 medium (composition: GMEM+1×N-2 Supplement (manufactured by Gibco, a supply of ×100 concentration was used after dilution), 0.1 mM non-essential amino acid, 1 mM sodium pyruvate, 0.1 mM 2-mercaptoethanol) for 3 days. The finally obtained differentiated cells were analyzed by the fluorescent antibody method using anti-Bf1 antibody. […]

ES cells [2] = assay: BMP treatment of ES cells cultured by SFEB method; assay type: cell-based
Text: (§1) It is interesting to elucidate what kinds of signaling regulate this difference by analyzing RNA profile for them.

ES cells [3] = assay: BMP treatment of ES cells cultured on collagen-coated dish; assay type: cell-based; conditions: BMP treatment (5 nM)
Text: as §1

ES cells [4] = assay: SDIA method on PA6 cells with BMP4, Math1 and cerebellar granule cell markers; assay type: cell-based
Text: Although there have been no reports on differentiation induction of ES cells into cerebellar tissue, the present inventors have already reported that Math1 is induced by treating neurons differentiated by the SDIA method with BMP4 (see Proc. Natl. Acad. Sci. USA, 100, 5828-5833). […] Therefore, the Math1-positive cells induced by the SDIA method were postulated not to be cerebellar granule cells, but to be Math1-positive cells of the pons, medulla oblongata, spinal cord and the like.

Sox1/GFP-mES cells = assay: SFEB serum-free floating culture of Sox1/GFP-mES cells, frequency of Sox1-GFP+ cells (FACS); assay type: cell-based, mouse; conditions: for experiment-to-experiment variation of GFP expression value: initial cell density 5×10^4 cell/ml, without addition varied by about 10-15%
Protocol: Specifically, As ES cells, those cultured for maintenance by conventional culture method without feeder cells supplemented with 1% fetal calf serum, 10% KSR (Knockout Serum Replacement), and LIF were used for SFEB method (see, Neuron, Vol. 28: 31-40 (2000)). Next, after ES cell colonies were subjected to trypsin/EDTA treatment to make single cells, 10 ml of the cells (6×10^4 cells/ml) were seeded on cell non-adhesive culture plastic plate (diameter: 10 cm), and incubated at 37° C., 5% CO2 for five days. As medium, differentiation medium composed of 500 ml of GMEM, 5 ml of 100×NEAA, 5 ml of 100×pyruvate, and 0.5 ml of 1×10^−1 M 2-mercaptoethanol, and 5% KSR (Knockout Serum Replacement).
Next, For quantitative analysis, mouse ES cells wherein GFP (green fluorescent protein) was knocked in the nerve marker Sox1 gene by homologous recombination (hereinafter abbreviated as Sox1/GFP-mES cells as required; see Nature Biotechnology Vol. 21: 183-186 (2003)) were cultured by the SFEB method. The culture conditions were the same as those for the SFEB method described in 1.1. above except that Sox1/GFP-mES cells were used as the ES cells.
Next, to further improve the efficiency of differentiation into nervous system cells by the SFEB method, the present inventors attempted to determine whether or not the efficiency of differentiation into nervous system cells was improved by inhibiting Nodal, Wnt, and BMP, which are promoters of differentiation into mesodermal cells.
Next, we tested effects of Nodal and Wnt by adding Nodal protein (manufactured by R&D) and Wnt3a protein (manufactured by R&D) to SFEB culture.

EB5 cells = assay: SFEB culture, differentiation into retinal precursor cells (Rx, rhodopsin immunostaining); assay type: cell-based, mouse
Protocol: EB5 cells were subjected to serum-free floating culture by the SFEB method for 5 days, after which cell clamps as is were seeded to a cell culture slide coated with poly-D lysine/laminin/fibronectin, and cultured while in the KSR-containing differentiation medium for the SFEB method for a total of 8 days. Immunostaining was performed using an internally prepared antibody against Rx, a marker specific for retinal precursor cells; an Rx-positive cell population was identified in about 15-30% of the cell clamps (colonies). By treatment with 5% fetal calf serum or 100 ng/ml activin (manufactured by R&D) or treatment with 3-30 nM Shh during 3 to 5 days after the start of cultivation, the Rx positivity rate of colonies increased to 50% (about 2 times). […] Also, these cells were subjected to adhesion culture for a long time (a total of 14 to 18 days); a plurality of cells positive for the visual cell marker Crx or rhodopsin were identified in 1-5% of the colonies.

ES cells [5] = assay: SFEB culture then adhesion culture with Wnt3a, dorsal/ventral telencephalon markers; assay type: cell-based, mouse
Protocol: Mouse ES cells (EB5 cells) were subjected to serum-free floating culture by the SFEB method in the same manner as Example 1 for 5 days, after which they were dispersed by trypsin/EDTA treatment, seeded to a cell culture slide coated with poly-D lysine/laminin, and cultured in a differentiation medium (as described above) for 2 days, and then in a GMEM+N2 medium (composition: GMEM+1×N-2 Supplement (manufactured by Gibco, a supply of ×100 concentration was used after dilution), 0.1 mM non-essential amino acid, 1 mM sodium pyruvate, 0.1 mM 2-mercaptoethanol) for 3 days. The finally obtained differentiated cells were analyzed by the fluorescent antibody method using anti-Bf1 antibody. For comparison, neural differentiation from ES cells was performed by the SDIA method, and the cells obtained were analyzed by the fluorescent antibody method in the same manner.
ES cells were cultured by the SFEB method in the same manner as Examples 4 and 6 for 5 days to induce neural differentiation, subsequently dispersed by trypsin/EDTA treatment, seeded to a cell culture slide coated with poly-D lysine/laminin, and cultured. […] In the case of 50 ng/ml Wnt3a, about 75% of the Bf1-positive cells expressed the dorsal marker Pax6, and about 10 percent of them expressed Emx1, a marker of cerebrocortical precursor cells.

[6] = Nodal protein 5 μg/ml, Wnt3a protein 50 ng/ml, during days 0-5 and days 2-5
[7] = Wnt3a 5 ng/ml or 50 ng/ml from Day 6, total 10 days

CC1=C(/C=C/C(C)=C/C=C/C(C)=C/C(=O)O)C(C)(C)CCC1 [RA, retinoic acid]
Bf1+ cells [1]: < 1%

BMP4: BMP signal promoter, manufactured by R&D
neural differentiation (ES cells [2]): completely suppresses neural differentiation
cell type produced (ES cells [2]; not flk1+ cells): efficiently produces E-cad^+/Oct3/4^− cells
cell type produced (ES cells [3]): induces efficient differentiation into flk1^+ lateral plate mesoderm
Ki67 in the Math1-positive cells (ES cells [4]; 0.5-1 nM BMP4): negative
expression of Pax6, Zic1 in the Math1-positive cells (ES cells [4]; 0.5-1 nM BMP4, most of these cells): did not express

B1: Nodal protein: Nodal protein (manufactured by R&D), Nodal signal promoter (protein, UniProt Q96S42 238-347, looked up)
Nodal homolog: HHLPDRSQLCRKVKFQVDFNLIGWGSWIIYPKQYNAYRCEGECPNPVGEEFHPTNHAYIQSLLKRYQPHRVPSTCCAPVKTKPLSMLYVDNGRVLLDHHKDMIVEECGCL
frequency of Sox1-GFP+ cells (Sox1/GFP-mES cells; [6]): significantly suppress

B2: activin: TGFβ family protein, Nodal signal promoter, manufactured by R&D (protein, UniProt P08476 311-426, looked up)
Inhibin beta A chain: GLECDGKVNICCKKQFFVSFKDIGWNDWIIAPSGYHANYCEGECPSHIAGTSGSSLSFHSTVINHYRMRGHSPFANLKSCCVPTKLRPMSMLYYDDGQNIIKKDIQNMIVEECGCS
modifications: Inhibin beta A chain activin A assumed
notes: TGFβ family protein, Nodal signal promoter, manufactured by R&D
Rx positivity rate of colonies (EB5 cells; 5% fetal calf serum or 100 ng/ml activin or 3-30 nM Shh during 3 to 5 days, total 8 days, without: about 15-30%): 50%
increase of Rx positivity rate of colonies (EB5 cells; same treatments, versus no treatment): about 2 times

B3: Wnt3a: Wnt3a protein (manufactured by R&D), Wnt signal promoter (protein, UniProt P56704 19-352, looked up)
Protein Wnt-3a: SYPIWWSLAVGPQYSSLGSQPILCASIPGLVPKQLRFCRNYVEIMPSVAEGIKIGIQECQHQFRGRRWNCTTVHDSLAIFGPVLDKATRESAFVHAIASAGVAFAVTRSCAEGTAAICGCSSRHQGSPGKGWKWGGCSEDIEFGGMVSREFADARENRPDARSAMNRHNNEAGRQAIASHMHLKCKCHGLSGSCEVKTCWWSQPDFRAIGDFLKDKYDSASEMVVEKHRESRGWVETLRPRYTYFKVPTERDLVYYEASPNFCEPNPETGSFGTRDRTCNVSSHGIDGCDLLCCGRGHNARAERRREKCRCVFHWCCYVSCQECTRVYDVHTCK
Bf1-positive cells expressing Emx1 (ES cells [5]; 50 ng/ml Wnt3a): about 10%
Bf1-positive cells expressing dorsal marker Pax6 (ES cells [5]; 50 ng/ml Wnt3a): about 75%
number of cells positive for both NRx2.1 and Bf1 (ventral telencephalon markers) (ES cells [5]; [7]): decreased remarkably
number of cells positive for both Pax6 and Bf1 (dorsal telencephalon markers) (ES cells [5]; [7]): increased
frequency of Sox1-GFP+ cells (Sox1/GFP-mES cells; [6]): significantly suppress

B4: Dkk1: anti-Wnt reagent (Wnt signal inhibitor), manufactured by R&D Company (protein, UniProt O94907 32-266, looked up)
Dickkopf-related protein 1: TLNSVLNSNAIKNLPPPLGGAAGHPGSAVSAAPGILYPGGNKYQTIDNYQPYPCAEDEECGTDEYCASPTRGGDAGVQICLACRKRRKRCMRHAMCCPGNYCKNGICVSSDQNHFRGEIEETITESFGNDHSTLDGYSRRTTLSSKMYHTKGQEGSVCLRSSDCASGLCCARHFWSKICKPVLKEGQVCTKHRRKGSHGLEIFQRCYCGEGLSCRIQKDHHQASNSSRLHTCQRH
experiment-to-experiment variation of GFP expression value (Sox1/GFP-mES cells): stabilized the value of GFP expression

B5: Lefty-A: anti-Nodal reagent (Nodal signal inhibitor), manufactured by R&D Company (protein, UniProt O00292 77-366, looked up)
Left-right determination …: RFSQSFREVAGRFLASEASTHLLVFGMEQRLPPNSELVQAVLRLFQEPVPKAALHRHGRLSPRSAQARVTVEWLRVRDDGSNRTSLIDSRLVSVHESGWKAFDVTEAVNFWQQLSRPRQPLLLQVSVQREHLGPLASGAHKLVRFASQGAPAGLGEPQLELHTLDLRDYGAQGDCDPEAPMTEGTRCCRQEMYIDLQGMKWAKNWVLEPPGFLAYECVGTCQQPPEALAFNWPFLGPRQCIASETASLPMIVSIKEGGRTRPQVVSLPNMRVQKCSCASDGALVPRRLQP
frequency of Sox1-GFP+ cells (Sox1/GFP-mES cells; added on Day 0 of SFEB, 5 μg/ml Lefty-A, 1 μg/ml Dkk1, 1.5 μg/ml BMPRIA-Fc receptobody): evaluate the frequency of Sox1-GFP^+ cells
experiment-to-experiment variation of GFP expression value (Sox1/GFP-mES cells): stabilized the value of GFP expression
